Measured values: patent publication US20170291948A1 (SAMSUNG LIFE PUBLIC WELFARE FOUNDATION, published 2017)

T1: human NRP1 protein (human, UniProt O14786-2 22-644, limits assumed)
T1 construct: Protein used for ELISA coating (200 ng per well) and SPR; also called Neuropilin 1
T1 sequence (looked up): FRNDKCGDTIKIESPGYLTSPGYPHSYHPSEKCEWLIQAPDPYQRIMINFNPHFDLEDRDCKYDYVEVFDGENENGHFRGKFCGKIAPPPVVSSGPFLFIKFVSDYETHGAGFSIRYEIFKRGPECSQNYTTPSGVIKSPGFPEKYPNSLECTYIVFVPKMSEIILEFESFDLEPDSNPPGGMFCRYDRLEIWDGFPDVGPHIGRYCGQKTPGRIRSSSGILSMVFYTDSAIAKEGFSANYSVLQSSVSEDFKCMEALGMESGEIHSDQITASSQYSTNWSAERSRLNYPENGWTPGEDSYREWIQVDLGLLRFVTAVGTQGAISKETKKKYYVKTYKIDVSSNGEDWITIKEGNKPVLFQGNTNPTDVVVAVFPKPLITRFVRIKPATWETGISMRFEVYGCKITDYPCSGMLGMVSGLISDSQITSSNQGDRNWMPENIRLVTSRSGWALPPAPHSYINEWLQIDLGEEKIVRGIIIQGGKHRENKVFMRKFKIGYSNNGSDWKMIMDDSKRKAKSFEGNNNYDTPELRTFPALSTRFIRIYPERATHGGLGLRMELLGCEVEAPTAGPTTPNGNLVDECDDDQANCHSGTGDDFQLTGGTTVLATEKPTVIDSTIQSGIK


Key:
[1] = target: NRP1 expressed on the surface of cancer cells (NRP1-overexpressing patient-derived cells); U87MG glioblastoma … (human, UniProt O14786 22-923); experiment: cell-based or functional assay
human NRP1 protein = target: T1, human NRP1 protein; experiment: IgG on human NRP1; text says ELISA and SPR, the legend of FIG. 14 says ELISA

Row | Binder | inhibition of tumor cells migration in patient-derived cells [1] | Kd (human NRP1 protein)
1 | IRCR-101 (3H10) anti-NRP1 IgG (antibody, V domains shown) VH: EVQLLESGGGLVQPGGSLRLSCAASGFTFSSYYMSWVRQAPGKGLEWVSAISPGSSNKYYADSVKGRFTISRDNSKNTLYLQMNSLRAEDTAVYYCARRKYMFDYWGQGTLVTVSS VL: QSVLTQPPSASGTPGQRVTISCTGSSSNIGNNDVYWYQQLPGTAPKLLIYSDSNRPSGVPDRFSGSKSGTSASLAISGLRSEDEADYYCASWDSSLSGYVFGGGTKLTVL | > 50% | –
2 | 4F12 anti-NRP1 IgG (antibody, V domains shown, scFv converted to IgG and made in the Expi 293F system, 150 kD; also called 4F12 antibody) VH: EVQLLESGGGLVQPGGSLRLSCAASGFTFSGYAMSWVRQAPGKGLEWVSGISPGSGSTYYADSVKGRFTISRDNSKNTLYLQMNSLRAEDTAVYYCAKRKTRFDYWGQGTLVTVSS VL: not shown | 40% | 600 pM
3 | 1A03 anti-NRP1 IgG (antibody, V domains shown) VH: EVQLLESGGGLVQPGGSLRLSCAASGFTFSSYYMSWVRQAPGKGLEWVSAISPGSSNKYYADSVQGRFTISRDNSKNTLYLQMNSLRAEDTAVYYCARRKKSFDYWGQGTLVTVSS VL: QSVLTQPPSASGTPGQRVTISCSGPSSNIGNNDVSWYQQLPGTAPKLLIYSDNNRPSGVPDRFSGSKSGTSASLAISGLRSEDEADYYCGAWVASLSAYVFGGGTKLTVL | > 50% | –
